Here are results for three molecules from patent US20260265372A1 (TECHNION RESEARCH AND DEVELOPMENT FOUNDATION, published 2026).

The target of assay [1] is HA glycoprotein of A/Puerto Rico/8/1934 (H1N1) influenza virus, purified (influenza virus A/Puerto Rico/8/1934 …, UniProt P03452 18-528). In words: ELISA, plate coated with the fusion protein. For orientation: ELISA stands for enzyme-linked immunosorbent assay.
Another assay addresses T1, D2 domain of human LAG-3 (human, UniProt P18627 169-260).
T1 sequence: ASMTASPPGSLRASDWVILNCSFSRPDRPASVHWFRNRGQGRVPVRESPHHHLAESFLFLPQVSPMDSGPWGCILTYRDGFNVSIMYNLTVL
As to the kind of experiment: not described.

B1: KIR2DL1 fused to the IgG1 Fc domain (Fc fusion)
chain: HEGVHRKPSLLAHPGRLVKSEETVILQCWSDVMFEHFLLHREGMFNDTLRLIGEHHDGVSKANFSISRMTQDLAGTYRCYGSVTHSPYQVSAPSDPLDIVIIGLYEKPSLSAQLGPTVLAGENVTLSCSSRSSYDMYHLSREGEAHERRLPAGPKVNGTFQADFPLGPATHGGTYRCFGSFHDSPYEWSKSSDPLLVSVTGNPSNSWPSPTEPSSKTGNPRHLH
On to B1, for which the binding result in assay [1] is recorded as “no binding”.

B2: 23DKTYB4 (antibody, V domains shown)
VH: QVQLKQSDDELVKPGASVKISCKVSGYTFTDHTIHWMKQRPEQGLEWIGYIYPRDGSTKYNEKFKGKATLTADKSSSTAYMQLNSLTSEDSAVYFCARRRSYYGSSFYFDVWGTGTTVSV
VL: DIQMTQSTSSLSASLGDRVTISCRASQDISNYLNWYQQKPDGTVKLLIYYTSRLHSGVPSRFSGSGSGTDYSLTISNLEQEDIATYFCQQGNTLPWTFGGGTK
On to B2, for which the binding result with D2 domain of human LAG-3 is recorded as “binds”.

B3: 23DKTYB19 (antibody, V domains shown)
VH: QVQLKQSDAELVKPGASVKISCKVSGYTFTDHTIHWMKQRPEQGLEWIGYIYPRDGSTKYNEKFKGKATLTADKSSSTAYMQLNSLTSEDSAVCFCARTGSYAMDYWGQGTSVTVSS
VL: DIVMTQSPASLAVSLGQRATISCKASQSVDYDGDSYMNWYQQKPGQPPKLLIYAASNLESGIPARFSGSGSGTDFTLNIHPVEEEDAATYYCQQSNEDPYTFGG
Regarding B3, in the assay with D2 domain of human LAG-3, the binding result is “binds”.
